B1: unnamed (parent)
chain 1: MELIRIAMKKDLENDNSLMNKWATVAGLKNPNPLYDFLNHDGKTFNEFSSIVNIVKSQYPDREYELMKDYCLNLDVKTKAARSALEYADANMFFEIEDVLIDSMISCSNMKSKEYGKVYKIHRELSNSVITEFEAVKRLGKLNIKTPEMNSFSRLLLLYHYLSTGNFSPMAQLIKQIDLSEISENMYIRNTYQTRVHVLMSNIKLNENSLEECREYSKKALESTNILRFQVFSYLTIGNSLLFSNYELAQENFLKGLSISVQNENYNMIFQQALCFLNNVWRKENKWINFESDSIMDLQEQAHCFINFNENSKAKEVLDKLDLLVHNDNELAMHYYLKGRLEQNKACFYSSIEYFKKSNDKFLIRLPLLELQKMGENQKLLELLLL
chain 2: not shown

Here are results for two variants from article PMC6458997, “Deciphering the Molecular Mechanism Underpinning Phage Arbitrium Communication Systems” (Molecular Cell, 2019).

In this experiment the parent is B1. The experiment can be described thus: thermal shift assay. The settings on record: with partner chain of the complex shown; AimR + AimP; one of three independent experiments.
Take chain 1 D360A: the screen value came out at 44.4 °C.

On to chain 1 N202A, for which the screen value came to 50.9 °C.
